According to IntAct's records for PubMed 22265419:

B1: WASH complex subunit homolog 3 (Caenorhabditis elegans), O01901 (parent)
chain: MNASSRTKPAIDLNKVPPIDHHRTAVTFNCLIMKMTEMLNNFGNKMEDILEKAEQSLDTADRKLRLMESKLAGMSLEDKSTTATPSSAPEIDEIHESNPSSSQIVEETVEEKPEEHTTTVLIKDDPAYSKYFKMLKLGVLEAGVIQKMKSEGVDPSILKRGDEPSRPQAQTSRNYESSGESTASFSDSD
partner: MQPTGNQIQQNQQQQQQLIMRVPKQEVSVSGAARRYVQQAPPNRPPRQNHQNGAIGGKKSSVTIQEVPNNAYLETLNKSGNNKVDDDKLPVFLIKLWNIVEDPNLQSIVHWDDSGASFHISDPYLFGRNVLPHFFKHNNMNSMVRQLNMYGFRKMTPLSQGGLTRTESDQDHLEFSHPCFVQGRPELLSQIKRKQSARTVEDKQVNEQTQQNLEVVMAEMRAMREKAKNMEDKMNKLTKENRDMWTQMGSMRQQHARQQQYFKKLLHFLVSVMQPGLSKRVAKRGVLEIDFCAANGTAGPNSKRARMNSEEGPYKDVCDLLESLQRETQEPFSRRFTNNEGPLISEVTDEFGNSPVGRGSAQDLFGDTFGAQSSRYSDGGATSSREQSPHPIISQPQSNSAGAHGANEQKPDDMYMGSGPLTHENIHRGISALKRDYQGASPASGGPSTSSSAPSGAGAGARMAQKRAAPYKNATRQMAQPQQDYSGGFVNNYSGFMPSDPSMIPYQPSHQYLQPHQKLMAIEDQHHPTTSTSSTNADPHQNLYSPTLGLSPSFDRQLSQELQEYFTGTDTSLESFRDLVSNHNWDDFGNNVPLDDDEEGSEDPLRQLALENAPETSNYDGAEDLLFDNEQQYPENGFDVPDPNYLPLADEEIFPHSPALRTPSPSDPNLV

Variants of: B1
Details: with hsf1_caeel hsf-1, G5EFT5
With MNASSRTKPAIDLNKVPPIDHHRTAVTFNCLIMKMTEMLNNFGNKMEDILEKAEQSLDTADRKLRLMESKLAGMSLEDKSTTATPSSAPEIDEIHESNPSSSQIVEETVEEKPEEHTTTVLIKDDPAYSKYFKMLKLGVLEAGVIQKMKSEGVDPSILKRGDEPSRPQAQTSRNYESSGESAASFSDSD [T182A] the “effect of a mutation on the interaction” value was “increasing interaction”.
